According to the RNAGym collection of RNA variant scans (doi:10.1101/gr.219683.116):

B1: mRNA-splicing (parent)
chain: AGUUGCUGCUGGGAGCUCCAGCACAGUGAAAUGGACAGAAGGGCAGAGCAA

Variants of: B1
Experiment: exon inclusion enrichment index; higher = more inclusion; WT1 exon 5 minigene, HEK293

Variant	exon inclusion enrichment index
AGUUGCUGCUGGGAGCUCCAGCACAGUGAAAUGGACUAAAGGGCAGAGCAA	0.0367
AGUUAGGGGAGGGAGCUCCAGCACAGUGAAAUGGACAGAAGGGCAGAGCAA	0.00648
AGUUUCUUUUGGGAGCUCCAGCACAGUGAAAUGUACAGAAGGGCAGAGCAA	0.0349
AGUUUCUUUUGGGAGCUCCAGCACAGUGAAAUGCACAGAAGGGCAGAGCAA	0.0201
AGUUGACGACGGGAGCUCCGUCACAGUGAAAUGGACAGAAGGGCAGAGCAA	1.35
AGUUCGCGCCGGGAGCUUUAGCACAGUGAAAUGGACAGAAGGGCAGAGCAA	0.197
AGUUAUAUAUGGGGACUCCAGCACAGUGAAAUGGACAGAAGGGCAGAGCAA	0.0192
AGUUGACGACGGGAGCUCCAGCACAGUGAAAUGGACAGAAGGGCAGUCCAA	2.31
AGUUCUACUCGGGAGCUCCAGCACAGUGAAAUGGACAGAAGGGCAGAGCAA	1.66
AGUUCUUCUCGGGAGCUCCAGCACAGUGAAAUGGACAGACUGGCAGAGCAA	0.895
AGUUGACGACGGGAGCCACAGCACAGUGAAAUGGACAGAAGGGCAGAGCAA	3.17
AAUUGCUGCUGGGAGCUCCAGCACAGUGAAAUGGACAGAAGGGCAGAGCAA	0.419
AGUUGACGACGGGAGCUCCAGCACAGUGAAAUGGACAGAAGGGUCGAGCAA	3.64
AGUUGAAGAAGGGAGCUCCAGCACAGUUAAAUGGACAGAAGGGCAGAGCAA	0.147
AGUUUCUUUUGGGAGCUCCAGCACAGUGAAAUGGACAGAAGGGCAGUUCAA	0.143
AGUUGAAGAAGGGAGCUCCAGCACAGUGACUUGGACAGAAGGGCAGAGCAA	0.986
AGUUCGCGCCAUGAGCUCCAGCACAGUGAAAUGGACAGAAGGGCAGAGCAA	1.83
AGUUGAAGAAGGGAGCUCCAGCAUGGUGAAAUGGACAGAAGGGCAGAGCAA	1.3
AGUUACUACCGGGAGCUCCAGCACAGUGAAAUGGACAGAAGGGCAGAGCAA	1.77
AGUUGCUGCUGGGAGCUCCAGCACAGUGAGUUGGACAGAAGGGCAGAGCAA	0.0224
AGUUAGCUAUGGGAGCUCCAGCACAGUGAAAUGGACAGAAGGGCAGAGCAA	0.0245
AGUUUCUUUUGGGAGCUCCAGCACAGUGAAAUGGACCAAAGGGCAGAGCAA	0.157
AGUUCACAACGGGAGCUCCAGCACAGUGAAAUGGACAGAAGGGCAGAGCAA	1.81
AGUUCGCGCCGGGAGCUCCAGCACAGUGAAAUGGACGUAAGGGCAGAGCAA	1.81
AGUUCUUCUCGGGAGCUCCAGCACAGUGAAAUGGACAGAAGGGCAAGGCAA	0.717
AGUUACCACCGGGAGCUCCAGUACAGUGAAAUGGACAGAAGGGCAGAGCAA	2.11

Variant	exon inclusion enrichment index
AGUUAUUUAUGGGAGCUCCAGCACAGUGAAAUGGACAGAAGGGCAGAGCAA	0.038
AGUUAGGGAUGGGAGCUCCAGUCCAGUGAAAUGGACAGAAGGGCAGAGCAA	0.000879
AGUUAGGGAUGGGAGCUCCAGCACAGUGAAAUGACCAGAAGGGCAGAGCAA	0.00134
AGUUGCUGCUGGGAGCUCCAGCACAGCAAAAUGGACAGAAGGGCAGAGCAA	0.0654
AGUUCUUCCAGGGAGCUCCAGCACAGUGAAAUGGACAGAAGGGCAGAGCAA	0.518
AGUUGACGACGGGAGCUCCAGCACAGUGAAAUGGAGAGAAGGGCAGAGCAA	2.75
AGUUCGCGCCGGGAGCUCCAGCACAGUGAAACCGACAGAAGGGCAGAGCAA	3.68
AGUUCUUCUCGGGAGCUCCAGCACAGUGAAAUGGACAGAAGGGCACCGCAA	1.76
AGUUGCUGCUGGGAGCUCCAGUACAGUGAAAUGGACAGAAGGGCAGAGCAA	1.27
AGUUCACACAGGGAGCUCCAGCACAGUGAAAUGGACAGAAGGGCUGAGCAA	0.211
AGUUACCACCGGGAGCUCCAGCACAGUGAAAUGGACAGCCGGGCAGAGCAA	3.03
AGUUACCACCGGGAGCUCCACUACAGUGAAAUGGACAGAAGGGCAGAGCAA	2.19
AGUUGACGACGGGAGCUCCAGCUAAGUGAAAUGGACAGAAGGGCAGAGCAA	1.89
AGUUAUAUAUGGGAGCUCCUACACAGUGAAAUGGACAGAAGGGCAGAGCAA	0.0106
AGUUACCACCGGGAGCUCCAGCACAGUGAAAUGGACAGAAGGGCACGGCAA	2.57
AGUUUCUUUUGUCAGCUCCAGCACAGUGAAAUGGACAGAAGGGCAGAGCAA	0.00926
AGUUCACACAGGGAGCUUGAGCACAGUGAAAUGGACAGAAGGGCAGAGCAA	0.0165
AGUGCGCGCCGGGAGCUCCAGCACAGUGAAAUGGACAGAAGGGCAGAGCAA	0.681
AGUUAGCACCGGGAGCUCCAGCACAGUGAAAUGGACAGAAGGGCAGAGCAA	0.446
AGUUGACGACGGGAGCUCCAGCACAGUGAAAUGGACAGAAGGGCACGGCAA	3.46
AGUUGCUGCUGGGAGCUCCAGCACAGUGAAAUGGACACUAGGGCAGAGCAA	0.00812
AGUUAUAUAUGGGAGCUCCAGCACAGUGAAAUGGACAGGCGGGCAGAGCAA	0.102
AGUUAGGGAUGGGAGCUCCAGCACUAUGAAAUGGACAGAAGGGCAGAGCAA	0.00161
AGUUGAAGAAGGGAGCUCCAGCACAGUGAAAUGGACAGCAGGGCAGAGCAA	0.201
AGUUUCUUUUGGGAGCUCCAGCACAGUGAAAUGCGCAGAAGGGCAGAGCAA	0.0652
